These results are taken from article PMC11772155, “Solid-Phase-Supported Chemoenzymatic Synthesis and Analysis of Chondroitin Sulfate Proteoglycan Glycopeptides” (Angewandte Chemie (International ed. in English), 2024).

Numbered stars: 1 amine (or outer) side, 2 acyl side, 3 side chain; on linkers, the order of the positions; unused ones are H or OH. Square brackets hold non-standard residues; d marks the D form. Ends that are not written are not given here. Peptide text beside a SMILES is read from it. X1 = CC(=O)N[C@H]1[C@H](O[C@H]2[C@H](O)[C@@H](O)[C@H](O[C@H]3[C@@H](O)[C@@H](CO)O[C@@H](O[C@H]4[C@@H](O)[C@@H](CO)O[C@@H](O[C@@H]5CO[C@@H](OC[C@H](N[*:1])C(=O)[*:2])[C@H](O)[C@H]5O)[C@@H]4O)[C@@H]3O)O[C@@H]2C(=O)O)O[C@H](CO)[C@H](OS(=O)(=O)O)[C@@H]1O[C@@H]1O[C@H](C(=O)O)[C@@H](O[C@@H]2O[C@H](CO)[C@H](OS(=O)(=O)O)[C@H](O[C@@H]3O[C@H](C(=O)O)[C@@H](O[C@@H]4O[C@H](CO)[C@H](O)[C@H](O[C@@H]5O[C@H](C(=O)O)[C@@H](O)[C@H](O)[C@H]5O)[C@H]4NC(C)=O)[C@H](O)[C@H]3O)[C@H]2NC(C)=O)[C@H](O)[C@H]1O

Assay [1] has as its target T1, Human Neutrophil Cathepsin G (Homo sapiens, UniProt P08311).
T1 construct: Human Neutrophil Cathepsin G was purchased from Athens; purchased Athens Research & Technology, Inc. (Athens, Georgia)
T1 sequence (P08311 21-243 limits assumed): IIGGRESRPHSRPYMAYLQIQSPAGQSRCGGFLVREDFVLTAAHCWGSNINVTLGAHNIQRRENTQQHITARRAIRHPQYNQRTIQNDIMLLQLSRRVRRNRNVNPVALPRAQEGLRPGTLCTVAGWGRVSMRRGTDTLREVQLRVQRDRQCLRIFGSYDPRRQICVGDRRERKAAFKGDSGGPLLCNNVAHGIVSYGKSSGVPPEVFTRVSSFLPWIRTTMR
Description: BLI (biolayer interferometry) binding assay of immobilized biotinylated compounds with Cathepsin G. Conditions: biotinylated compounds immobilized on streptavidin sensors, Cathepsin G at 2000, 1000, 500, 250 nM in PBS containing 0.005% P20, read-out: KD (nM) with Cathepsin G. An excerpt:
With structurally defined glycopeptides in hand, we aim to better understand the structural features needed for bikunin glycopeptide binding. Cathepsin G (CatG), a neutrophil serine protease, plays a crucial role in regulating various physiological processes, including inflammation, digestion, smooth muscle contraction, and tissue remodeling.[64] While CatG has been reported to interact with CSPG, the structural requirement of CSPG binding has not been established.[25] To measure the binding affinity towards CatG, peptides 5 and glycopeptides 10, 18–21 were biotinylated and immobilized on streptavidin coated sensors for biolayer interferometry (BLI) studies. Biotinylated 50 kDa CS and CS-A were also immobilized on the sensors for comparison. […]
General procedure of glycopeptide biotinylation
To a solution of peptide or glycopeptide in DMSO/H 2O (1/1, 0.1 ml) was added NHS-LC-Biotin (4 equiv.) and diisoproylethylamine (pH ~ 8.5). The reaction was incubated at 37 °C for 2 h. Then the mixture was dried in vacuo and purified by HPLC.
General procedure for BLI binding assay
The binding assay was performed on the Octet K2 System (Pall ForteBio). The biotinylated compounds were incubated with streptavidin (SA) sensors for 2 min. The sensor was then balanced in the assay buffer (PBS containing 0.005% P20) and dipped into Cathepsin G solution in assay buffer at 2000 nM, 1000 nM, 500 nM, 250 nM concentrations.
After 5 min of association, the sensor was brought back to the previous assay buffer for a 5 min dissociation step. At the end of the assay, the sensor was regenerated in 2 M NaCl to remove the bound protein. Each measurement was repeated 3 times on the same sensor. The control assay was performed with another sensor loaded with a 2 mM biotin solution.
Figure S3. Binding of peptide and glycopeptides a) 5, b) 10 , c) 18 , d) 19 , e) 20 , f) 21 , g) commercially available biotinylated 50 kDa CS, and h) 50 kDa CS-A to neutrophil Cathepsin G as measured by BLI ( a-h respectively). The biotinylated compounds (50 nM) were immobilized on streptavidin coated biosensors, and human neutrophil Cathepsin G was captured on biosensors with four concentrations at 2000 nM, 1000 nM, 500 nM, 250 nM.
Fitting curves were shown in red lines. […]
(In general: BLI is a label-free optical method that tracks binding on a fibre tip over time.)

Assay [2] addresses biotinylated tetrasaccharide linkage region bearing glycopeptide 10 (bikunin). As to the kind of experiment: BLI; biotinylated peptide or glycopeptides immobilised on streptavidin coated sensors; cathepsin G in solution.
The target of assay [3] is biotinylated sulfated 8-mer CS-bearing glycopeptide 19 (bikunin). Described as above.
The target in assay [4] is biotinylated sulfated 10-mer CS-bearing glycopeptide 20 (bikunin). The assay is described as above.
Assay [5] deals with biotinylated non-sulfated chondroitin dodecasaccharide glycopeptide 18 (bikunin). The description is as above.
Assay [6] addresses biotinylated sulfated 12-mer CS-bearing glycopeptide 21 (bikunin). Described as above.

In the case of `CC(=O)N[C@H]1[C@H](O[C@H]2[C@H](O)[C@@H](O)[C@H](O[C@H]3[C@@H](O)[C@@H](CO)O[C@@H](O[C@H]4[C@@H](O)[C@@H](CO)O[C@@H](O[C@@H]5CO[C@@H](OC[C@H](NC(=O)CNC(=O)[C@H](CCC(=O)O)NC(=O)[C@H](CCC(=O)O)NC(=O)[C@H](CCC(=O)O)NC(=O)[C@H](CCC(N)=O)NC(=O)[C@@H]6CCCN6C(=O)[C@H](CC(C)C)NC(=O)[C@@H](NC(=O)[C@H](C)N)C(C)C)C(=O)NCC(=O)NCC(=O)NCC(=O)N[C@@H](CCC(N)=O)C(=O)N[C@@H](CC(C)C)C(=O)N[C@H](C(=O)N[C@H](C(=O)N[C@@H](CCC(=O)O)C(=O)N[C@H](C(=O)N[C@H](C(=O)N[C@@H](CCCCN)C(=O)N[C@@H](CCCCN)C(=O)N[C@@H](CCC(=O)O)C(=O)N[C@@H](CC(=O)O)C(=O)N[C@@H](CO)C(=O)O)[C@@H](C)O)C(C)C)[C@@H](C)O)C(C)C)[C@H](O)[C@H]5O)[C@@H]4O)[C@@H]3O)O[C@@H]2C(=O)O)O[C@H](CO)[C@H](OS(=O)(=O)O)[C@@H]1O[C@@H]1O[C@H](C(=O)O)[C@@H](O[C@@H]2O[C@H](CO)[C@H](OS(=O)(=O)O)[C@H](O[C@@H]3O[C@H](C(=O)O)[C@@H](O[C@@H]4O[C@H](CO)[C@H](O)[C@H](O[C@@H]5O[C@H](C(=O)O)[C@@H](O)[C@H](O)[C@H]5O)[C@H]4NC(C)=O)[C@H](O)[C@H]3O)[C@H]2NC(C)=O)[C@H](O)[C@H]1O` [Compound 20] (H-AVLPQEEEG[X1]GGGQLVTEVTKKEDS-OH; N-terminus and C-terminus assumed), the Kd (usually the free concentration of one partner at which half of the binding sites on the other are occupied at equilibrium, for simple one-to-one binding) in assay [1] worked out at 74 ± 7 nM.
The same measure, in the same setting: the same measure for `CC(=O)N[C@H]1[C@H](O[C@H]2[C@H](O)[C@@H](O)[C@H](O[C@H]3[C@@H](O)[C@@H](CO)O[C@@H](O[C@H]4[C@@H](O)[C@@H](CO)O[C@@H](O[C@@H]5CO[C@@H](OC[C@H](NC(=O)CNC(=O)[C@H](CCC(=O)O)NC(=O)[C@H](CCC(=O)O)NC(=O)[C@H](CCC(=O)O)NC(=O)[C@H](CCC(N)=O)NC(=O)[C@@H]6CCCN6C(=O)[C@H](CC(C)C)NC(=O)[C@@H](NC(=O)[C@H](C)N)C(C)C)C(=O)NCC(=O)NCC(=O)NCC(=O)N[C@@H](CCC(N)=O)C(=O)N[C@@H](CC(C)C)C(=O)N[C@H](C(=O)N[C@H](C(=O)N[C@@H](CCC(=O)O)C(=O)N[C@H](C(=O)N[C@H](C(=O)N[C@@H](CCCCN)C(=O)N[C@@H](CCCCN)C(=O)N[C@@H](CCC(=O)O)C(=O)N[C@@H](CC(=O)O)C(=O)N[C@@H](CO)C(=O)O)[C@@H](C)O)C(C)C)[C@@H](C)O)C(C)C)[C@H](O)[C@H]5O)[C@@H]4O)[C@@H]3O)O[C@@H]2C(=O)O)O[C@H](CO)[C@H](OS(=O)(=O)O)[C@@H]1O[C@@H]1O[C@H](C(=O)O)[C@@H](O[C@@H]2O[C@H](CO)[C@H](OS(=O)(=O)O)[C@H](O[C@@H]3O[C@H](C(=O)O)[C@@H](O[C@@H]4O[C@H](CO)[C@H](OS(=O)(=O)O)[C@H](O[C@@H]5O[C@H](C(=O)O)[C@@H](O[C@@H]6O[C@H](CO)[C@H](O)[C@H](O[C@@H]7O[C@H](C(=O)O)[C@@H](O)[C@H](O)[C@H]7O)[C@H]6NC(C)=O)[C@H](O)[C@H]5O)[C@H]4NC(C)=O)[C@H](O)[C@H]3O)[C@H]2NC(C)=O)[C@H](O)[C@H]1O` [Compound 21]: 56 ± 8 nM.
Take “Cathepsin G (from UniProt P08311 21-244) (enzyme)”: the Kd amounted to 650 nM in assay [2]; 49 nM in assay [3]; 74 nM in assay [4]; 490 nM in assay [5]; 56 nM in assay [6].
With “H-AVLPQEEEGSGGGQLVTEVTKKEDS [Compound 5]”, the Kd in assay [1] is 400 ± 40 nM.
